Measurements as given in patent US20240299575A1 (DENALI THERAPEUTICS, published 2024).

B1: TV variant S239C (RSV Fab-Fc dimer fusion, CH3C.35.23.2 on the knob chain, LALA, S239C on the hole chain) (antibody, human IgG1, kappa, L234A L235A)
light: DIQMTQSPSTLSASVGDRVTITCKCQLSVGYMHWYQQKPGKAPKLLIYDTSKLASGVPSRFSGSGSGTEFTLTISSLQPDDFATYYCFQGSGYPFTFGGGTKLEIKRTVAAPSVFIFPPSDEQLKSGTASVVCLLNNFYPREAKVQWKVDNALQSGNSQESVTEQDSKDSTYSLSSTLTLSKADYEKHKVYACEVTHQGLSSPVTKSFNRGEC
heavy 1: QVTLRESGPALVKPTQTLTLTCTFSGFSLSTSGMSVGWIRQPPGKALEWLADIWWDDKKDYNPSLKSRLTISKDTSKNQVVLKVTNMEPADTATYYCARSMITNWYFDVWGAGTTVTVSSASTKGPSVFPLAPSSKSTSGGTAALGCLVKDYFPEPVTVSWNSGALTSGVHTFPAVLQSSGLYSLSSVVTVPSSSLGTQTYICNVNHKPSNTKVDKKVEPKSCDKTHTCPPCPAPEAAGGPSVFLFPPKPKDTLMISRTPEVTCVVVDVSHEDPEVKFNWYVDGVEVHNAKTKPREEQYNSTYRVVSVLTVLHQDWLNGKEYKCKVSNKALPAPIEKTISKAKGQPREPQVYTLPPSRDELTKNQVSLWCLVKGFYPSDIAVEWESYGTEWANYKTTPPVLDSDGSFFLYSKLTVTKEEWQQGFVFSCSVMHEALHNHYTQKSLSLSPGK
heavy 2: QVTLRESGPALVKPTQTLTLTCTFSGFSLSTSGMSVGWIRQPPGKALEWLADIWWDDKKDYNPSLKSRLTISKDTSKNQVVLKVTNMEPADTATYYCARSMITNWYFDVWGAGTTVTVSSASTKGPSVFPLAPSSKSTSGGTAALGCLVKDYFPEPVTVSWNSGALTSGVHTFPAVLQSSGLYSLSSVVTVPSSSLGTQTYICNVNHKPSNTKVDKKVEPKSCDKTHTCPPCPAPEAAGGPCVFLFPPKPKDTLMISRTPEVTCVVVDVSHEDPEVKFNWYVDGVEVHNAKTKPREEQYNSTYRVVSVLTVLHQDWLNGKEYKCKVSNKALPAPIEKTISKAKGQPREPQVYTLPPSRDELTKNQVSLSCAVKGFYPSDIAVEWESNGQPENNYKTTPPVLDSDGSFFLVSKLTVDKSRWQQGNVFSCSVMHEALHNHYTQKSLSLSPGK
notes: also called S239C (100 nM); S239 variant
B2: TV variant A330C (RSV Fab-Fc dimer fusion, CH3C.35.23.2 on the knob chain, A330C on the hole chain) (antibody, human IgG1, kappa, L234A L235A)
light: DIQMTQSPSTLSASVGDRVTITCKCQLSVGYMHWYQQKPGKAPKLLIYDTSKLASGVPSRFSGSGSGTEFTLTISSLQPDDFATYYCFQGSGYPFTFGGGTKLEIKRTVAAPSVFIFPPSDEQLKSGTASVVCLLNNFYPREAKVQWKVDNALQSGNSQESVTEQDSKDSTYSLSSTLTLSKADYEKHKVYACEVTHQGLSSPVTKSFNRGEC
heavy 1: QVTLRESGPALVKPTQTLTLTCTFSGFSLSTSGMSVGWIRQPPGKALEWLADIWWDDKKDYNPSLKSRLTISKDTSKNQVVLKVTNMEPADTATYYCARSMITNWYFDVWGAGTTVTVSSASTKGPSVFPLAPSSKSTSGGTAALGCLVKDYFPEPVTVSWNSGALTSGVHTFPAVLQSSGLYSLSSVVTVPSSSLGTQTYICNVNHKPSNTKVDKKVEPKSCDKTHTCPPCPAPEAAGGPSVFLFPPKPKDTLMISRTPEVTCVVVDVSHEDPEVKFNWYVDGVEVHNAKTKPREEQYNSTYRVVSVLTVLHQDWLNGKEYKCKVSNKALPAPIEKTISKAKGQPREPQVYTLPPSRDELTKNQVSLWCLVKGFYPSDIAVEWESYGTEWANYKTTPPVLDSDGSFFLYSKLTVTKEEWQQGFVFSCSVMHEALHNHYTQKSLSLSPGK
heavy 2: QVTLRESGPALVKPTQTLTLTCTFSGFSLSTSGMSVGWIRQPPGKALEWLADIWWDDKKDYNPSLKSRLTISKDTSKNQVVLKVTNMEPADTATYYCARSMITNWYFDVWGAGTTVTVSSASTKGPSVFPLAPSSKSTSGGTAALGCLVKDYFPEPVTVSWNSGALTSGVHTFPAVLQSSGLYSLSSVVTVPSSSLGTQTYICNVNHKPSNTKVDKKVEPKSCDKTHTCPPCPAPEAAGGPSVFLFPPKPKDTLMISRTPEVTCVVVDVSHEDPEVKFNWYVDGVEVHNAKTKPREEQYNSTYRVVSVLTVLHQDWLNGKEYKCKVSNKALPCPIEKTISKAKGQPREPQVYTLPPSRDELTKNQVSLSCAVKGFYPSDIAVEWESNGQPENNYKTTPPVLDSDGSFFLVSKLTVDKSRWQQGNVFSCSVMHEALHNHYTQKSLSLSPGK
notes: also called Conjugation site A330C
B3: TV variant 500 nM low affinity (RSV Fab-Fc dimer fusion, CH3C.35.23.4 on the knob chain, S239C on the hole chain) (antibody, human IgG1, kappa, L234A L235A)
light: DIQMTQSPSTLSASVGDRVTITCKCQLSVGYMHWYQQKPGKAPKLLIYDTSKLASGVPSRFSGSGSGTEFTLTISSLQPDDFATYYCFQGSGYPFTFGGGTKLEIKRTVAAPSVFIFPPSDEQLKSGTASVVCLLNNFYPREAKVQWKVDNALQSGNSQESVTEQDSKDSTYSLSSTLTLSKADYEKHKVYACEVTHQGLSSPVTKSFNRGEC
heavy 1: QVTLRESGPALVKPTQTLTLTCTFSGFSLSTSGMSVGWIRQPPGKALEWLADIWWDDKKDYNPSLKSRLTISKDTSKNQVVLKVTNMEPADTATYYCARSMITNWYFDVWGAGTTVTVSSASTKGPSVFPLAPSSKSTSGGTAALGCLVKDYFPEPVTVSWNSGALTSGVHTFPAVLQSSGLYSLSSVVTVPSSSLGTQTYICNVNHKPSNTKVDKKVEPKSCDKTHTCPPCPAPEAAGGPSVFLFPPKPKDTLMISRTPEVTCVVVDVSHEDPEVKFNWYVDGVEVHNAKTKPREEQYNSTYRVVSVLTVLHQDWLNGKEYKCKVSNKALPAPIEKTISKAKGQPREPQVYTLPPSRDELTKNQVSLWCLVKGFYPSDIAVEWESYGTEWSNYKTTPPVLDSDGSFFLYSKLTVSKEEWQQGFVFSCSVMHEALHNHYTQKSLSLSPGK
heavy 2: QVTLRESGPALVKPTQTLTLTCTFSGFSLSTSGMSVGWIRQPPGKALEWLADIWWDDKKDYNPSLKSRLTISKDTSKNQVVLKVTNMEPADTATYYCARSMITNWYFDVWGAGTTVTVSSASTKGPSVFPLAPSSKSTSGGTAALGCLVKDYFPEPVTVSWNSGALTSGVHTFPAVLQSSGLYSLSSVVTVPSSSLGTQTYICNVNHKPSNTKVDKKVEPKSCDKTHTCPPCPAPEAAGGPCVFLFPPKPKDTLMISRTPEVTCVVVDVSHEDPEVKFNWYVDGVEVHNAKTKPREEQYNSTYRVVSVLTVLHQDWLNGKEYKCKVSNKALPAPIEKTISKAKGQPREPQVYTLPPSRDELTKNQVSLSCAVKGFYPSDIAVEWESNGQPENNYKTTPPVLDSDGSFFLVSKLTVDKSRWQQGNVFSCSVMHEALHNHYTQKSLSLSPGK
notes: also called 500 nM variant
B4: TV variant OTR4 (RSV Fab-Fc dimer fusion, CH3C.35.23.2 on the knob chain, S239C and A330C on both chains) (antibody, human IgG1, kappa, L234A L235A)
light: DIQMTQSPSTLSASVGDRVTITCKCQLSVGYMHWYQQKPGKAPKLLIYDTSKLASGVPSRFSGSGSGTEFTLTISSLQPDDFATYYCFQGSGYPFTFGGGTKLEIKRTVAAPSVFIFPPSDEQLKSGTASVVCLLNNFYPREAKVQWKVDNALQSGNSQESVTEQDSKDSTYSLSSTLTLSKADYEKHKVYACEVTHQGLSSPVTKSFNRGEC
heavy 1: QVTLRESGPALVKPTQTLTLTCTFSGFSLSTSGMSVGWIRQPPGKALEWLADIWWDDKKDYNPSLKSRLTISKDTSKNQVVLKVTNMEPADTATYYCARSMITNWYFDVWGAGTTVTVSSASTKGPSVFPLAPSSKSTSGGTAALGCLVKDYFPEPVTVSWNSGALTSGVHTFPAVLQSSGLYSLSSVVTVPSSSLGTQTYICNVNHKPSNTKVDKKVEPKSCDKTHTCPPCPAPEAAGGPCVFLFPPKPKDTLMISRTPEVTCVVVDVSHEDPEVKFNWYVDGVEVHNAKTKPREEQYNSTYRVVSVLTVLHQDWLNGKEYKCKVSNKALPCPIEKTISKAKGQPREPQVYTLPPSRDELTKNQVSLWCLVKGFYPSDIAVEWESYGTEWANYKTTPPVLDSDGSFFLYSKLTVTKEEWQQGFVFSCSVMHEALHNHYTQKSLSLSPGK
heavy 2: QVTLRESGPALVKPTQTLTLTCTFSGFSLSTSGMSVGWIRQPPGKALEWLADIWWDDKKDYNPSLKSRLTISKDTSKNQVVLKVTNMEPADTATYYCARSMITNWYFDVWGAGTTVTVSSASTKGPSVFPLAPSSKSTSGGTAALGCLVKDYFPEPVTVSWNSGALTSGVHTFPAVLQSSGLYSLSSVVTVPSSSLGTQTYICNVNHKPSNTKVDKKVEPKSCDKTHTCPPCPAPEAAGGPCVFLFPPKPKDTLMISRTPEVTCVVVDVSHEDPEVKFNWYVDGVEVHNAKTKPREEQYNSTYRVVSVLTVLHQDWLNGKEYKCKVSNKALPCPIEKTISKAKGQPREPQVYTLPPSRDELTKNQVSLSCAVKGFYPSDIAVEWESNGQPENNYKTTPPVLDSDGSFFLVSKLTVDKSRWQQGNVFSCSVMHEALHNHYTQKSLSLSPGK
notes: also called OTR4 (2.5)
B5: TV variant OTR2 (RSV Fab-Fc dimer fusion, CH3C.35.23.2 on the knob chain, S239C on both chains) (antibody, human IgG1, kappa, L234A L235A)
light: DIQMTQSPSTLSASVGDRVTITCKCQLSVGYMHWYQQKPGKAPKLLIYDTSKLASGVPSRFSGSGSGTEFTLTISSLQPDDFATYYCFQGSGYPFTFGGGTKLEIKRTVAAPSVFIFPPSDEQLKSGTASVVCLLNNFYPREAKVQWKVDNALQSGNSQESVTEQDSKDSTYSLSSTLTLSKADYEKHKVYACEVTHQGLSSPVTKSFNRGEC
heavy 1: QVTLRESGPALVKPTQTLTLTCTFSGFSLSTSGMSVGWIRQPPGKALEWLADIWWDDKKDYNPSLKSRLTISKDTSKNQVVLKVTNMEPADTATYYCARSMITNWYFDVWGAGTTVTVSSASTKGPSVFPLAPSSKSTSGGTAALGCLVKDYFPEPVTVSWNSGALTSGVHTFPAVLQSSGLYSLSSVVTVPSSSLGTQTYICNVNHKPSNTKVDKKVEPKSCDKTHTCPPCPAPEAAGGPCVFLFPPKPKDTLMISRTPEVTCVVVDVSHEDPEVKFNWYVDGVEVHNAKTKPREEQYNSTYRVVSVLTVLHQDWLNGKEYKCKVSNKALPAPIEKTISKAKGQPREPQVYTLPPSRDELTKNQVSLWCLVKGFYPSDIAVEWESYGTEWANYKTTPPVLDSDGSFFLYSKLTVTKEEWQQGFVFSCSVMHEALHNHYTQKSLSLSPGK
heavy 2: QVTLRESGPALVKPTQTLTLTCTFSGFSLSTSGMSVGWIRQPPGKALEWLADIWWDDKKDYNPSLKSRLTISKDTSKNQVVLKVTNMEPADTATYYCARSMITNWYFDVWGAGTTVTVSSASTKGPSVFPLAPSSKSTSGGTAALGCLVKDYFPEPVTVSWNSGALTSGVHTFPAVLQSSGLYSLSSVVTVPSSSLGTQTYICNVNHKPSNTKVDKKVEPKSCDKTHTCPPCPAPEAAGGPCVFLFPPKPKDTLMISRTPEVTCVVVDVSHEDPEVKFNWYVDGVEVHNAKTKPREEQYNSTYRVVSVLTVLHQDWLNGKEYKCKVSNKALPAPIEKTISKAKGQPREPQVYTLPPSRDELTKNQVSLSCAVKGFYPSDIAVEWESNGQPENNYKTTPPVLDSDGSFFLVSKLTVDKSRWQQGNVFSCSVMHEALHNHYTQKSLSLSPGK
notes: also called OTR2 (1.23)

Molecular target: T1, Human transferrin receptor protein 1 (TFR1) (human, UniProt P02786 89-760, limits assumed)
T1 construct: also called huTfR
Assay: column 'Affinity' of the construct table; method not stated

T1 sequence (P02786 89-760 limits assumed): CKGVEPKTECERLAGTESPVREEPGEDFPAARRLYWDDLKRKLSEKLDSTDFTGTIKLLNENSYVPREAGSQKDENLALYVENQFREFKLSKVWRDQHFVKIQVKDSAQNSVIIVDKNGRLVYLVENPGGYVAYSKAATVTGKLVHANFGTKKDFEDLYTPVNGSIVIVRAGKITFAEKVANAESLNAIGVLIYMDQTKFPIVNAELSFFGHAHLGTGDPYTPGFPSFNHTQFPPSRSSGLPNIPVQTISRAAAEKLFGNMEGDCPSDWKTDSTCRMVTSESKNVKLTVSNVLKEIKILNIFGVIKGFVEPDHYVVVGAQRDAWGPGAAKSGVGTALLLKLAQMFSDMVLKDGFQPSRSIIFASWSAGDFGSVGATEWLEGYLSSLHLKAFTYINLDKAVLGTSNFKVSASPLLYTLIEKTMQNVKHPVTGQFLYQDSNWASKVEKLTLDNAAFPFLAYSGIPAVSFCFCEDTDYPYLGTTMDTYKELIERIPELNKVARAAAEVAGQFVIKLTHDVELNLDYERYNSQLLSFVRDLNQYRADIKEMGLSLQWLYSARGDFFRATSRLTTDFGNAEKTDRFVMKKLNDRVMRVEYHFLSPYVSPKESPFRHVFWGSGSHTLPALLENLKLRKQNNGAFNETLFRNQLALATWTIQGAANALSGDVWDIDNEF

Q: Which Kd does the source give for B1 here?
A: 0.1 µM

Q: With B2 as the binder, how does the Kd read?
A: 0.1 µM

Q: How did the Kd turn out when B3 was run?
A: 0.5 µM

Q: Which Kd does the source give for B4 here?
A: 0.1 µM

Q: How did the Kd turn out when B5 was run?
A: 0.1 µM
